This assay addresses T1, Flag-labeled truncated PINK1 (amino acids 321-509) (UniProt Q9BXM7 321-509).
T1 construct: PINK1, amino acids 321-509; also called C-lobe of kinase domain of PINK1; kinase domain C; source: HEK293T, purified using 3x Flag peptide
The assay can be described thus: pull-down; purified Flag-PINK1 (full length or truncated) incubated with biotin-labeled PD-L1 ICD peptide in 25 mM Tris-HCl pH 7.4, 150 mM NaCl, 1 mM EDTA, 0.05% NP-40, 10% glycerol for 12 h at 4 °C; streptavidin sepharose beads or anti-Flag M2 affinity gel 1.5 h; five washes; immunoblot. As to conditions: both partners purified. For orientation: Immunoblotting shows a protein as a band on a membrane.

No end group written: not given here.

T1 sequence (Q9BXM7 321-509): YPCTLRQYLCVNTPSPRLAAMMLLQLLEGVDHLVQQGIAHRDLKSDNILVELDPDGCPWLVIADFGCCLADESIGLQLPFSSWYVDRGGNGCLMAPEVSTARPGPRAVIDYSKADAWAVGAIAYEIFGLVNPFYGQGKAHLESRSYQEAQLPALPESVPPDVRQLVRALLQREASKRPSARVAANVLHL

B1: Biotin-labeled PD-L1 ICD peptide (amino acids 262-290) (peptide, UniProt Q9NZQ7 262-290, looked up)
peptide: RKGRMMDVKKCGIQDTNSKKQSDTHLEET
modifications: also: biotin-labeled, position not given here
notes: PD-L1 (CD274), intracellular domain, amino acids 262-290; also called intracellular domain of PD-L1; intracellular region of PD-L1; source: synthetic peptide (GenScript)
With B1, the binding result is “binds”.

These data come from article PMC9977947, “Targeting ATAD3A-PINK1-mitophagy axis overcomes chemoimmunotherapy resistance by redirecting PD-L1 to mitochondria” (Cell Research, 2023).
